Where two headings read alike, the source gives them in different places.
Experiments:
male Sprague-Dawley rats [1] = assay: Kaolin intake (pica) test; details: for kaolin intake after dosing relative to 0.9% NaCl: LiCl IP, exendin-4 and CJC-1134-PC 0.5 nmol/kg SC
Method: (§1) Ninety male Sprague-Dawley rats of 6 weeks in age were housed individually and given food and water ad libitum. Habituation to kaolin was achieved by offering fresh blocks of kaolin daily for 8 days before dosing. Rats were then assigned to nine treatment groups (n=10/group).
(§2) Immediately following injection, animals were offered a fresh kaolin block in addition to food and water. Kaolin intake was measured every hour for a four-hour period immediately after dosing, and also at 6, 8, and 24 hours post dose (FIG. 3).

subjects = details: subcutaneous injection, 1.5 nmol/kg body weight and higher; cited from earlier work
male Sprague-Dawley rats [2] = details: rat, in vivo
Text: One model for studying gastrointestinal malaise in response to administration of a test agent is the conditioned taste aversion test (Peeters and Broekkamp, 1994, J. Steroid Biochem. Mol. Biol., 49:417-427). Conditioned taste aversion is a form of associative learning in which animals learn to avoid flavors of substances where initial ingestion of the substance was followed by illness. In conditioned taste aversion, animals learn to associate a flavor, or conditioned stimulus, with the aversive effects of an administered agent, or unconditioned stimulus. Following conditioned stimulus—unconditioned stimulus pairings, animals reduce their consumption of the conditioned stimulus, and/or show a preference for other tastes when later presented with the conditioned flavor. […] The conditioned stimulus was 0.1% saccharin flavored water with high palatability. […]
Following injection, all groups were given food ad libitum and 2 bottles of water. At 72 h and 96 h post dose, a choice of tap water or 0.1% saccharin solution (conditioned stimulus) was offered, and intake of both solutions was measured for 12 hours. Mean saccharin preference ratios, representing the percentage of saccharin solution consumed relative to total liquid intake, were determined for each group (FIGS. 1 and 2).

Sprague Dawley rats = assay: Rat toxicity study (7-day and 28-day); format: in vivo
Method: Immediately following injection, rats were housed individually, and food consumption and changes in body weights were monitored. […] However, by day 4, food consumption was similar to that observed in rats receiving vehicle only (FIG. 4). […] (FIG. 5).
Recombinant human albumin (rHA) was also dosed at 23 mg/kg as an additional control.

[3] = tested on: patients with stable Type 2 diabetes; assay: Phase I/II single escalating dose clinical study of CJC-1134-PC; format: in vivo, human; details: for Nausea (%) / Vomiting (%): N=6
Method: Patients enrolled in the trial had HbA1c levels between 6.5% and 11%. Patients previously treated with oral anti-diabetic agents discontinued therapy at least 1 week prior to dosing. […] Injections were performed with a 29 gauge needle. Each cohort consisted of 7 patients (6 active, 1 placebo). The mean glucose values at baseline of the cohorts (without placebo) were 15.6, 12.2, 12.1, 11.2, 9.6 and 15.3 mmol/L, respectively.
The efficacy parameters were based on the group mean and individual mean glucose values. Glucose was measured 6 times per day (fasting, 2-hour post-breakfast, pre-lunch, 2-hour post-lunch, pre-dinner and bedtime) during the first week and 3 times per day (fasting, 2-hour post-breakfast and bedtime) for the remaining 5 weeks of the study. In addition, a placebo group was constructed for data analysis by pooling the patients (one per cohort) that received placebo during the study. […] At the third cohort (1250 micrograms), the mean glucose reduction from baseline for the first week was 19% (ranging from 15% to 24% with a mean reduction on day 7 of 20%), giving an average glucose value for the week of 9.8 mmol/L. This glucose reduction was significant against baseline (p=0.0007) and against placebo (p=0.0045). […] The glucose reductions of the subsequent cohorts were of similar magnitude and duration and confirmed this response. At the 2500 microgram cohort, the average glucose value for the first week was reduced to 9.5 mmol/L; the value for the 5000 microgram cohort for the first week was reduced to 8.4 mmol/L. (The American Diabetes Association (ADA) has a recommended target of HbA1C<7%; a mean daily glucose level of 9.5 mmol/L corresponds to an HbA1C level of 7%).

[4] = tested on: female diabetic db/db mice; format: in vivo, mouse; details: for abnormal clinical signs: mouse, in vivo
Method: Blood glycemia was recorded at the following time points: pre-dose, 1, 3, 6, 24, 30, 48, 52, 74 and 101 hours post dose using a handheld glucometer (Accu-check compact, Roche Diagnostics, Canada). Food and water intake were recorded at the following timepoints: 0 to 6, 6 to 24, 24 to 30, 30 to 48, 48 to 72 and 72 to 101 hours post dose.

[5] = tested on: Male Zucker Diabetic Fatty (ZDF) rats; assay: Anti-obesity test in ZDF rats; format: in vivo, rat; details: for cumulative food intake relative to 0.9% NaCl group / cumulative weight gain compared to 0.9% NaCl: 25 days; for cumulative weight gain compared to 0.9% NaCl: four weekly SC injections, 100 and 200 nmol/kg; for day on which decrease in cumulative food intake reached statistical significance: relative to 0.9% NaCl group, weekly SC injections
Method: Control animal were injected with 0.9% NaCl. Animals were weighed twice a week and food intake was measured daily for the first week and four times a week thereafter for a total of 25 days. Statistical analysis was performed using two-way Analysis of Variance (ANOVA) followed by the Tukey's pair-wise comparison test. Significance was considered when P value was less than 0.05.

monkeys = assay: Monkey toxicity study (7-day and 28-day); format: in vivo
Method: Recombinant human albumin was also dosed at 9 mg/kg as an additional control.

male Sprague-Dawley rats [6] = details: rat, in vivo; remark: listed apart in the source
Method: as §1, §2

[7] = 1250 μg (17.6 nmoles) single SC
[8] = 2500 μg (35.2 nmoles) single SC
[9] = 3750 μg (52.8 nmoles) single SC
[10] = 5000 μg (70.4 nmoles) single SC
[11] = first four cohorts (310, 620, 1250 and 2500 μg)

For [Cl-].[Li+] [LiCl, Lithium chloride, reference compound], the “kaolin intake after dosing relative to 0.9% NaCl” value (male Sprague-Dawley rats [1]) was “significant kaolin intake after 1 h”.
In the case of “GLP-1: proglucagon-derived peptide secreted from intestinal L-cells; incretin”, the nausea and vomiting (subjects) is given as “lead to nausea and, less often, vomiting in a significant proportion of subjects”.
In the case of “exendin-4(1-39) Lys^40 (ε-AEEA-MPA)-NH2 conjugated with albumin [CJC-1134-PC]”, the “taste aversion response compared to unconjugated exendin-4” value (male Sprague-Dawley rats [2]) is reported as “significantly lower taste aversion response”, the “clinical chemistry, hematology, urinalysis, organ weights, macroscopic evaluations” value (Sprague Dawley rats; rat 7-day study) is reported as “no effects on clinical chemistry, hematology, urinalysis, or organ weights, or on macroscopic evaluations” and the “mortality or serious signs of toxicity” value (Sprague Dawley rats; rat 7-day study, 1, 5 or 25 mg/kg/day SC) is reported as “no mortality or serious signs of toxicity were observed”. For the same molecule, the food consumption (Sprague Dawley rats; rat 7-day study, 5 and 25 mg/kg/day SC, similar to vehicle by day 4) was “dose dependent decrease in food consumption was observed at days 1-3”, the macroscopic evaluations (Sprague Dawley rats; rat 28-day study) was “no effects on macroscopic evaluations” and the food consumption (Sprague Dawley rats; rat 28-day study, 25 mg/kg, comparable across groups by day 8) was “decrease in food consumption was observed at 25 mg/kg from days 1-7”. For the same molecule, the body weight (Sprague Dawley rats; rat 28-day study, 25 mg/kg, weight gain comparable days 4-28) was “Decreases in body weight were also observed at the 25 mg/kg/doses at days 1-4”, the “activity and fecal output” value (Sprague Dawley rats; rat 28-day study, following injections) was “transient decrease in activity and fecal output” and the tolerability (Sprague Dawley rats; rats, up to 25 mg/kg) was “generally well tolerated”. The “kaolin intake after dosing relative to 0.9% NaCl” value (male Sprague-Dawley rats [1]) was “kaolin intake was only moderately increased after 6 h”, the “kaolin intake relative to 0.9% NaCl, first 2 h” value (male Sprague-Dawley rats [1]; first 2 h post dose) was “Minimal kaolin intake” and the “Nausea (%)” value ([3]; 310 μg (4.4 nmoles) single SC) was 0%. For the same molecule, the “Vomiting (%)” value ([3]; 310 μg (4.4 nmoles) single SC) was 0%, the “Nausea (%)” value ([3]; 620 μg (8.7 nmoles) single SC) was 0% and the “Vomiting (%)” value ([3]; 620 μg (8.7 nmoles) single SC) was 0%. The “Nausea (%)” value [3, 7] was 0%, the “Vomiting (%)” value [3, 7] was 0% and the “Nausea (%)” value [3, 8] was 0%. The “Vomiting (%)” value [3, 8] was 0%, the “Nausea (%)” value [3, 9] was 17% and the “Vomiting (%)” value [3, 9] was 17%. The “Nausea (%)” value [3, 10] was 50%, the “Vomiting (%)” value [3, 10] was 17% and the “average glucose value for the first week” value ([3]; 1250 micrograms) was 9.8 mmol/L. The “duration of glucose lowering effect” value ([3]; 1250 micrograms) was “more than 2 weeks”, the “mean glucose reduction from baseline on day 7” value ([3]; 1250 micrograms) was 20% and the “mean glucose reduction from baseline for the first week” value ([3]; 1250 micrograms, p=0.0007 vs baseline, p=0.0045 vs placebo) was 19%. The “average glucose value for the first week” value ([3]; 2500 microgram cohort) was 9.5 mmol/L, the “average glucose value for the first week” value ([3]; 5000 microgram cohort) was 8.4 mmol/L and the “symptoms (headache, dizziness, light-headedness without documented hypoglycaemia)” value ([3]; 5000 microgram cohort) was “symptoms linked to an over stimulation of the GLP-1 receptors were observed”. For the same molecule, the injection site reactions [3, 11] was “no injection site reactions”, the safety and tolerability [3, 11] was “no safety or tolerability issues” and the efficacy on glucose ([3]; first two cohorts (310 and 620 micrograms)) was “Limited or no efficacy”. For the same molecule, the “average weight loss at day 7” value ([3]; first two non-active cohorts) was 0.4 kg, the gastric stasis ([3]; in each of the 3750 and 5000 μg cohorts, post-lunch on day one) was “one mild and transient case of short-term gastric stasis” and the “dose linearity of plasma concentrations” value ([3]; single SC dose, 310-5000 μg) was “dose linear”. The “average weight loss at day 7” value ([3]; three following cohorts where activity was observed on glucose) was 0.9 kg, the “blood glucose levels compared to 100 nmol/kg unconjugated exendin-4” value ([4]; 100 nmol/kg single SC, 24 h post dose) was “significantly lower” and the “blood glucose levels compared to unconjugated exendin-4” value ([4]; 100 nmol/kg single SC, out to 48 h post dose) was “remained lower”. The “food and water consumption compared to unconjugated exendin-4” value ([4]; 24-47 h post dose) was “remained lower”, the “food and water consumption compared to unconjugated exendin-4” value ([4]; after 24 hours) was “significantly reduced” and the “blood glucose levels compared to unconjugated exendin-4” value ([4]; after 72 h) was “comparable”. The “food consumption relative to exendin-4 treated mice” value ([4]; after 74 h, maintained out to 101 h post dose) was “only moderately lower”, the abnormal clinical signs [4] was “No abnormal clinical signs” and the “water consumption relative to exendin-4 treated mice” value ([4]; out to 101 h post dose) was “moderately lower”. The “day from which reduction of cumulative weight gain was statistically significant” value ([5]; 100 nmol/kg, p≦0.05) was 11 days, the “day from which reduction of cumulative weight gain was statistically significant” value ([5]; 200 nmol/kg, p≦0.01) was 4 days and the “cumulative food intake relative to 0.9% NaCl group” value [5] was “Reduction in cumulative food intake”. The “cumulative weight gain compared to 0.9% NaCl” value [5] was “significantly reduced”, the “day on which decrease in cumulative food intake reached statistical significance” value [5] was 9 days and the “clinical chemistry, hematology, urinalysis, organ weights, macroscopic evaluations” value (monkeys; monkey 7-day study) was “no effects on clinical chemistry, hematology, urinalysis, or organ weights, or on macroscopic evaluations”. The “mortality or serious signs of toxicity” value (monkeys; monkey 7-day study, 0.4, 2 and 10 mg/kg/day SC) was “no mortality or serious signs of toxicity were observed”, the “food consumption (number of biscuits per day)” value (monkeys; monkey 7-day study, days 1-3, all groups including vehicle control, comparable by days 4-7) was “Initial decreases in food consumption” and the body weight (monkeys; monkey 7-day study, moderately attenuated by day 7) was “dose-dependent decrease in body weight by day 3”. For the same molecule, the body weight (monkeys; monkey 28-day study) was “dose dependent decrease in body weight was observed throughout the 28-day period”, the clinical signs (monkeys; monkey 28-day study) was “transient decrease in activity, hunched posture, and decreased fecal output” and the macroscopic evaluations (monkeys; monkey 28-day study) was “no effects on macroscopic evaluations”. The food consumption (monkeys; monkey 28-day study, 10 mg/kg, comparable across groups by day 7) was “significantly reduced at 10/mg/kg on days 2 and 3” and the tolerability (monkeys; monkeys, up to 10 mg/kg) was “generally well tolerated”.
For exendin-4(1-39) [reference compound], the “conditioned taste aversion (saccharin preference ratio compared to vehicle control)” value (male Sprague-Dawley rats [2]) was “decreased significantly the preference saccharine ratio”, the abnormal clinical signs [4] was “No abnormal clinical signs” and the “cumulative food intake relative to 0.9% NaCl group” value [5] was “Reduction in cumulative food intake”. The “cumulative weight gain compared to 0.9% NaCl” value [5] was “not significant”, the “day on which decrease in cumulative food intake reached statistical significance” value [5] was 16 days and the “kaolin intake relative to 0.9% NaCl, first 2 h” value (male Sprague-Dawley rats [6]) was “Minimal kaolin intake”.

— patent US8039432B2, “Method of treatment of diabetes and/or obesity with reduced nausea side effect” (Conjuchem, LLC, priority 2005, dated 2011)
